Where a chain is given by its changes, count along the chain named.
B1: cr389 (nucleic acid)
guide: GTTTAAGAGCTAAGCTGGAAACAGCATAGCAAGTTTAAATAAAACTAGTTTGTTATCAACTTGAAAAAGTGGCACCGAGTCGGTGCT
modifications: listed as DNA, chemistry not fully specified
B2: cr541 (nucleic acid)
guide: B1 guide with A44G, C45G, G48C, T50C, C73T, G85A
modifications: listed as DNA, chemistry not fully specified
B3: cr562 (nucleic acid)
guide: B1 guide with A31G, G33C, A43G, A44G, T50C, T51C, A65G
modifications: listed as DNA, chemistry not fully specified
B4: cr261 (nucleic acid)
guide: B1 guide with T34G, A43G, A44G, T50C, T51C, T53G
modifications: listed as DNA, chemistry not fully specified
B5: cr186 (nucleic acid)
guide: B1 guide with T34G, A43G, A44G, T50C, T51C, C60G, G69C
modifications: listed as DNA, chemistry not fully specified
B6: cr031 (nucleic acid)
guide: B1 guide with T3A, T4A, A43G, A44G, T50C, T51C
modifications: listed as DNA, chemistry not fully specified
B7: cr507 (nucleic acid)
guide: B1 guide with A43T, A44G, T50C, T51A, C76A, G82T
modifications: listed as DNA, chemistry not fully specified
B8: cr448 (nucleic acid)
guide: B1 guide with G33C, A43G, A44C, T50G, T51C
modifications: listed as DNA, chemistry not fully specified
B9: cr462 (nucleic acid)
guide: B1 guide with G33A, T34A, A43G, A44G, T50C, T51C
modifications: listed as DNA, chemistry not fully specified
B10: cr337 (nucleic acid)
guide: B1 guide with A43C, A44G, T50C, T51G, A65G
modifications: listed as DNA, chemistry not fully specified
B11: cr041 (nucleic acid)
guide: B1 guide with T2C, A5C, A43G, A44G, T50C, T51C
modifications: listed as DNA, chemistry not fully specified
B12: cr834 (nucleic acid)
guide: B1 guide with T34G, A43G, A44G, T50C, T51C, A65G
modifications: listed as DNA, chemistry not fully specified
B13: cr413 (nucleic acid)
guide: B1 guide with G33C, A43G, A44G, T50C, T51C, C75A, G83T
modifications: listed as DNA, chemistry not fully specified
B14: cr963 (nucleic acid)
guide: B1 guide with A43C, A44G, T50C, T51G, A74G, C76T, G82A, T84C
modifications: listed as DNA, chemistry not fully specified
B15: cr157 (nucleic acid)
guide: B1 guide with G33C, A43G, A44G, T50C, T51C, C75T, G83A
modifications: listed as DNA, chemistry not fully specified
B16: cr248 (nucleic acid)
guide: B1 guide with A43C, A44G, T50C, T51G
modifications: listed as DNA, chemistry not fully specified
B17: cr519 (nucleic acid)
guide: B1 guide with T34G, A43G, A44G, T50C, T51C, A74G, T84C
modifications: listed as DNA, chemistry not fully specified
B18: cr191 (nucleic acid)
guide: B1 guide with G33C, A43G, A44G, T50C, T51C, C75G, G83C
modifications: listed as DNA, chemistry not fully specified
B19: cr324 (nucleic acid)
guide: B1 guide with A43C, A44G, T50C, T51G, T61C, A68G
modifications: listed as DNA, chemistry not fully specified
B20: cr504 (nucleic acid)
guide: B1 guide with T34G, A43G, A44G, T50C, T51C, T62G, A67C
modifications: listed as DNA, chemistry not fully specified
B21: cr170 (nucleic acid)
guide: B1 guide with T34G, A43G, A44G, T50C, T51C, G72A, C86T
modifications: listed as DNA, chemistry not fully specified
B22: cr384 (nucleic acid)
guide: B1 guide with A44T, T50A
modifications: listed as DNA, chemistry not fully specified
B23: cr773 (nucleic acid)
guide: B1 guide with T34G, A43G, A44G, A47T, T50C, T51C, A64G
modifications: listed as DNA, chemistry not fully specified
B24: cr841 (nucleic acid)
guide: B1 guide with T34G, A43G, A44G, T50C, T51C, A59C, T70G
modifications: listed as DNA, chemistry not fully specified
B25: cr042 (nucleic acid)
guide: B1 guide with T3G, T4G, A43G, A44G, T50C, T51C
modifications: listed as DNA, chemistry not fully specified
B26: cr111 (nucleic acid)
guide: B1 guide with G33C, A43G, A44G, T50C, T51C, C76A, G82T
modifications: listed as DNA, chemistry not fully specified
B27: cr864 (nucleic acid)
guide: B1 guide with G29A, A41T, A43G, A44G, T50C, T51C
modifications: listed as DNA, chemistry not fully specified
B28: cr424 (nucleic acid)
guide: B1 guide with A43C, A44G, T50C, T51G, A74G, C75T, G83A, T84C
modifications: listed as DNA, chemistry not fully specified
B29: cr028 (nucleic acid)
guide: B1 guide with T3C, T4C, A43G, A44G, T50C, T51C
modifications: listed as DNA, chemistry not fully specified
B30: cr987 (nucleic acid)
guide: B1 guide with A43G, A44G, T49G, T50C, T51C, A65T
modifications: listed as DNA, chemistry not fully specified
B31: cr382 (nucleic acid)
guide: B1 guide with T34G, A43C, A44G, T50C, T51G
modifications: listed as DNA, chemistry not fully specified
B32: cr954 (nucleic acid)
guide: B1 guide with T34G, A43G, A44G, T50C, T51C, C60A, G69T
modifications: listed as DNA, chemistry not fully specified
B33: cr310 (nucleic acid)
guide: B1 guide with A41T, A43G, A44G, T50C, T51C, A66T
modifications: listed as DNA, chemistry not fully specified
B34: cr316 (nucleic acid)
guide: B1 guide with A43T, A44G, T50C, T51A, G77A, C81T
modifications: listed as DNA, chemistry not fully specified
B35: cr731 (nucleic acid)
guide: B1 guide with T34G, A43G, A44G, T50C, T51C, C73T, G85A
modifications: listed as DNA, chemistry not fully specified
B36: cr336 (nucleic acid)
guide: B1 guide with A43G, A44G, C45G, G48C, T50C, T51C, C60A, G69T, G77C, C81G
modifications: listed as DNA, chemistry not fully specified
B37: cr951 (nucleic acid)
guide: B1 guide with A43G, A44G, T50C, T51C, A65G, A74T, T84A
modifications: listed as DNA, chemistry not fully specified
B38: cr263 (nucleic acid)
guide: B1 guide with A43G, A44G, T50C, T51C, A66C
modifications: listed as DNA, chemistry not fully specified
B39: cr964 (nucleic acid)
guide: B1 guide with A31T, A43G, A44G, T50C, T51C, A65G
modifications: listed as DNA, chemistry not fully specified
B40: cr628 (nucleic acid)
guide: B1 guide with A43G, A44G, T50C, T51C, C73T, G77A, C81T, G85A
modifications: listed as DNA, chemistry not fully specified
B41: cr214 (nucleic acid)
guide: B1 guide with A43G, A44G, T50C, T51C, A65G, C75A, G83T
modifications: listed as DNA, chemistry not fully specified

System: K562 CRISPRi cells
Assay: Constant region variant library pooled growth screen, K562
Format: cell-based, human
Conditions: sgRNA constant region variant; activity relative to unmodified constant region cr995; mean CRISPRi activity
How it was run: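 Relative activity expresses each targeting sequence:constant region pair's phenotype over that of the unmodified constant region. Pooled growth screen ran in K562 CRISPRi cells in duplicate spinner-flask replicates, with puromycin selection and 4–8 days' growth at >2000× coverage; library paired variants with 36 targeting sequences.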

| Molecule | Mean relative activity |
| --- | --- |
| B1 | 0.01944 |
| B2 | 0.01856 |
| B3 | 0.01393 |
| B4 | 0.01441 |
| B5 | 0.0199 |
| B6 | 0.01677 |
| B7 | 0.01954 |
| B8 | 0.01746 |
| B9 | 0.01488 |
| B10 | 0.01313 |
| B11 | 0.01415 |
| B12 | 0.01861 |
| B13 | 0.01427 |
| B14 | 0.01551 |
| B15 | 0.01383 |
| B16 | 0.01369 |
| B17 | 0.01933 |
| B18 | 0.01358 |

| Molecule | Mean relative activity |
| --- | --- |
| B19 | 0.01711 |
| B20 | 0.01685 |
| B21 | 0.01501 |
| B22 | 0.01438 |
| B23 | 0.01327 |
| B24 | 0.01636 |
| B25 | 0.0164 |
| B26 | 0.013 |
| B27 | 0.01678 |
| B28 | 0.01319 |
| B29 | 0.01375 |
| B30 | 0.01815 |
| B31 | 0.01715 |
| B32 | 0.01751 |
| B33 | 0.01363 |
| B34 | 0.01422 |
| B35 | 0.01505 |
| B36 | 0.01616 |

Same assay, conditions: sgRNA constant region variants; activity relative to the original, un-modified constant region cr995

| Molecule | Mean relative activity |
| --- | --- |
| B37 | 1.034 |
| B38 | 1.033 |
| B39 | 1.033 |
| B40 | 1.033 |
| B41 | 1.033 |

From patent US20220259593A1, “CONTROL OF MAMMALIAN GENE DOSAGE USING CRISPR” (The Regents of the University of California, priority 2019, published 2022)
